Data as given in patent publication US20200347144A1 (SHANGHAI HYAMAB BIOTECH, published 2020).
Positions count from the first letter of the chain named.

B1: 52F4G2 (antibody, V domains shown)
VH: QVQLQESGPGLVKPSETLSLTCAVSGYSISSGYYWGWIRQPPGKGLEWIGSIFHSGSSYYNPSLKSRVTISVDTSKNQFSLKLRSVTAADTAVYYCARESSGWNCFDYWGQGTLVTVSS
VL: DIQMTQSPSTLSASVGDRVTITCRASQTISTWLAWYQQKPGKAPKLLIYKASNLESGVPSRFSGSGSGTEFTLTISSLQPDDFATYYCQQYNSYSITFGQGTRLEIK
B2: 23G3B8 (antibody, V domains shown)
VH: B1 VH with G26A, S58N, T74P, R84S, A88V, W103Y
VL: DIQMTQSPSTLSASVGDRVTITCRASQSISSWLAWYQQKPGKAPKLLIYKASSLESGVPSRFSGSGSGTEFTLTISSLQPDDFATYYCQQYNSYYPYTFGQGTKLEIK
B3: 289B6G6 (antibody, V domains shown)
VH: QVQLQESGPGLVRPSETLSLTCAVSGYSISSGYYWGWIRQPPGKGLEWIGSIFHSGNTYYNPSLKSRVIVSGDTSKNQFSLKLSSVTAADTAVYYCTRESSGFNVFDIWGQGTMVTVSS
VL: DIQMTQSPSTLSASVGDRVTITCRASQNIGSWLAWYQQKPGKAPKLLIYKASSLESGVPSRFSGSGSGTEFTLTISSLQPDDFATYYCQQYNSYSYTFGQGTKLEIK
B4: 172E3E3 (antibody, V domains shown)
VH: QVQLQESGPGLVKPSGTLSLTCAVSGGSISSSNWWSWVRQPPGKGLEWIGEIYHSGSTNYNPSLKSRVTISVDKSKNQLSLNLSSVTAADTAVYYCARQGGVAGTLYWYFDLWGRGTLVTVSS
VL: DIVMTQSPLSLPVTPGEPASISCRSSQGLLHSNGYNYLDWYLQKPGQSPQLLIYLGSNRASGVPDRFIGSGSGTDFTLKIRRVEAEDVGVYYCMQVLQTPWTFGQGTKVEIK
B5: 118F3A2 (antibody, V domains shown)
VH: QVQLQQWGAGLLKPSETLSLTCGVYGGSFSTNYWSWIRQSPGKGLEWIGEINHSGNTEYNPSLKSRLTISIDTSKNQFSLKLTSVTAADTAVYYCARMGYHSPSFDFWGQGVLVTVSS
VL: KIVMTQSPATLSVSPGERATLPCRVSQGIGSNLAWYQQKPGQAPRLLIYGASTRATGVPARFSGSGSGSEFTLTISSLQSEDLALYYCQQYNNWPLTFGGGTKVEIK
B6: 170D7F2 (antibody, V domains shown)
VH: QVQLVQSGAEVKKPGASVKVSCKASGYTFTSYDINWVRQATGQGLEWMGWMNPNSGNTGYAQKFQGRVTMTRNTSISTAYMELSSLRSEDTAVYYCARETGPFDYWGQGTLVTVSS
VL: DIQMTQSPSSLSASVGDRVTITCRASQRINNYLNWYQQKPGKAPKLLIYGASSLQSGVPSRFSGSGSGTDFTLTISSLQPEDFATYYCQQSYSTPFTFGPGTKVDIK
B7: 182A5B3 (antibody, V domains shown)
VH: B6 VH with A61V
VL: not shown

Key:
[1] = target: T1, human 4-1BB, full length, on transfected cells (human, UniProt Q07011 24-255); test: FACS, CHOK1-h4-1BB cells; Ab 2 ug/ml
T1 construct: whole, on cells; also called CHOK1-h4-1BB
T1 sequence (Q07011 24-255): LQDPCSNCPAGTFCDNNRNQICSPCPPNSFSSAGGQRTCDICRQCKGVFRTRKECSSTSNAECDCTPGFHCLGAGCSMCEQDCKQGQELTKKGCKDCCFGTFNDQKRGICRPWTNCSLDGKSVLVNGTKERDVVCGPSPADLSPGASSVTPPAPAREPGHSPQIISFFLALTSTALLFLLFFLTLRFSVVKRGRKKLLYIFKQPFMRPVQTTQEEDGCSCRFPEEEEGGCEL
From the text: (§1) The pIRES plasmid carrying the full-length gene of monkey-derived […] (the preparation method is the same as the preparation method of the pCpC vector carrying the human-derived IgG Fc fragment (hFc) in “Preparation of immunogen A” of the step (1) in Example 1, in which the database accession number of the amino acid sequence of the extracellular region of monkey 4-1BB protein (Phe19-Thr239) is G7PSE7) was transfected into CHOK1 cell line to obtain CHOK1 stable transfected cell line containing monkey 4-1BB (herein referred to as CHOK1-c4-1BB stable cell line). The CHOK1-h4-1BB stable cell line and the CHOK1-c4-1BB stable cell line were expanded and cultivated to 90% confluence in T-75 cell culture flasks. The medium was exhausted, and washed twice with HBSS buffer (Hanks Balanced Salt Solution, purchased from Invitrogen), and then the cells were treated and collected with enzyme-free cell dissociation solution (Versene solution, purchased from Life Technology). The cells were washed twice with HBSS buffer, and after cell counting, the cells were diluted with HBSS buffer to 2×10⁶ cells per ml, and 1% goat serum blocking solution was added, the percentage being the mass percentage. It was incubated on ice for 30 minutes, and then washed twice with HBSS buffer by centrifugation. The collected cells were suspended in FACS buffer (HBSS containing 1% BSA, the percentage was the mass percentage) to 2×10⁶ cells/mL, and 100 μl per well was added to a 96-well FACS reaction plate. The purified 4-1BB antibody test sample obtained in Example 2 was added, 100 microliters per well and incubated on ice for 2 hours. […] It was washed three times with FACS buffer by centrifugation, and 100 μl of fixative [4% (v/v) paraformaldehyde] per well was added to suspend cells, and washed twice with FACS buffer after 10 minutes by centrifugation. The cells were suspended with 100 microliters of FACS buffer, and the results were detected and analyzed with FACS (FACS Calibur, purchased from BD).

[2] = target: T2, monkey 4-1BB on CHOK1 cells (monkey); test: FACS, CHOK1-c4-1BB cells; Ab 2 ug/ml
T2 construct: whole, on cells; also called CHOK1-c4-1BB
From the text: as §1

[3] = target: T1, human 4-1BB, full length, on …; test: FACS, CHOK1-h4-1BB cells; Ab 10 ug/ml
From the text: as §1

[4] = target: T2, monkey 4-1BB on CHOK1 cells; test: FACS, CHOK1-c4-1BB cells; Ab 0.4 ug/ml
From the text: as §1

[5] = target: T2, monkey 4-1BB on CHOK1 cells; test: FACS, CHOK1-c4-1BB cells; Ab 0.08 ug/ml
From the text: as §1

[6] = target: T2, monkey 4-1BB on CHOK1 cells; test: FACS, CHOK1-c4-1BB cells; Ab 0.016 ug/ml
From the text: as §1

[7] = target: T1, human 4-1BB, full length, on …; test: FACS, CHOK1-h4-1BB cells; Ab 0.0032 ug/ml
From the text: as §1

[8] = target: T2, monkey 4-1BB on CHOK1 cells; test: FACS, CHOK1-c4-1BB cells; Ab 0.0032 ug/ml
From the text: as §1

[9] = target: T3, hFc-tagged human 4-1BB extracellular domain protein (4-1BB-hFc) (human, UniProt Q07011 24-186, limits assumed); test: ELISA, coated human 4-1BB-hFc; Ab 10 ug/ml
T3 construct: also called immunogen A; 4-1BB^ECD-hFc; not shown: human IgG Fc fragment (hFc) of the pCpC vector
Procedure: (§2) The purified immunogen A (4-1BB-hFc), monkey 4-1BB-his, and mouse 4-1BB-his obtained in Example 1 [for the preparation method, see step 1 of Example 1, preparation of immunogen A], of which the extracellular domain of monkey-derived 4-1BB protein (purchased from ACRO biosystems), the extracellular domain of mouse 4-1BB protein (purchased from sino biological) or other immune detection point proteins respectively were diluted with PBS to a final concentration of 1.0 μg/mL, then added with […] per well to 96-well ELISA plate. It was sealed with plastic film and incubated at 4° C. overnight. The next day, the plate was washed twice with the plate-washing solution [PBS containing 0.01% (v/v) Tween20] and blocking solution [PBS containing 0.01% (v/v) Tween 20 and 1% (v/v) BSA] was added and blocked at room temperature for 2 hours. The blocking solution was discarded and 100 μl of the purified 4-1BB antibody obtained in Example 2 was added per well. After incubated at 37° C. for 2 hours, the plate was washed 3 times with a plate-washing solution [PBS containing 0.01% (v/v) Tween20]. A secondary antibody (purchased from Sigma) labeled with HRP (horseradish peroxidase) was added, and after incubated at 37° C. for 2 hours, the plate was washed 3 times with a plate-washing solution [PBS containing 0.01% (v/v) Tween20]. 100 μl of TMB substrate was added per well. After incubated for 30 minutes at room temperature, 100 μl of stop buffer (1.0N HCl) was added per well. The A450 nm values were read using an ELISA plate reader (SpectraMax 384plus, Molecular Device).

[10] = target: T2, monkey 4-1BB on CHOK1 cells; test: FACS, CHOK1-c4-1BB cells; Ab 0.00013 ug/ml
From the text: as §1

[11] = target: T3, hFc-tagged human 4-1BB extracellular …; test: ELISA, coated human 4-1BB-hFc; Ab 0.016 ug/ml
Procedure: as §2

[12] = target: T3, hFc-tagged human 4-1BB extracellular …; test: ELISA, coated human 4-1BB-hFc; Ab 0.0006 ug/ml
Procedure: as §2

[13] = target: T1, human 4-1BB, full length, on …; test: FACS on CHOK1-h4-1BB cells, Alexa 488 secondary antibody, average fluorescence intensity
From the text: as §1

Row | Binder | average fluorescence intensity [1] [MFI] | average fluorescence intensity [2] [MFI] | average fluorescence intensity [3] [MFI] | average fluorescence intensity [4] [MFI] | average fluorescence intensity [5] [MFI] | average fluorescence intensity [6] [MFI] | average fluorescence intensity [7] [MFI] | average fluorescence intensity [8] [MFI] | OD450 nm [9] [OD450 nm] | average fluorescence intensity [10] [MFI] | OD450 nm [11] [OD450 nm] | OD450 nm [12] [OD450 nm] | EC50 (read off the curve) [13] [µg/mL]
1 | B1 | 600 | 679 | 615 | 469 | 130 | 41.2 | 38.3 | 13.7 | 3.06 | 3.2 | 2.51 | 0.34 | ~0.05
2 | B2 | 619 | 586 | – | 392 | 154 | 34.2 | 38.5 | 10.8 | 2.78 | 3.4 | 1.1 | 0.1 | –
3 | B3 | 1920 | 597 | 2280 | 466 | 179 | 47.2 | 26.7 | 14.1 | 2.8 | 3 | 1.47 | 0.11 | –
4 | B4 | 486 | 305 | 489 | 159 | 47 | 16.7 | 13 | 6.6 | 3.43 | 17.6 | 1.65 | 0.2 | ~0.1
5 | B5 | 540 | 688 | 527 | 408 | 114 | 41.2 | 34.4 | 11.8 | 2.73 | 2.9 | 0.99 | 0.44 | ~0.05
6 | B6 | 736 | 621 | 735 | 304 | 96.3 | 25.9 | 14 | 8.5 | 3.44 | 2.6 | 1.64 | 0.19 | ~0.2
7 | B7 | 760 | 712 | 769 | 373 | 118 | 33.2 | 14.8 | 10.4 | 3.5 | 2.7 | 1.48 | 0.18 | ~0.2
